1 substance from publication doi:10.1101/718072 can be followed below.

Read-outs that look alike come from different tables or passages of the source.

Assay [1] addresses FliF (flagellar MS-ring protein) from Salmonella enterica serovar Typhimurium (Salmonella enterica serovar Typhimurium) (UniProt P15928). The experiment in a line: cryo-EM structure.
Assay [2] shares this target. The experiment in a line: cryo-EM structure. The source holds these as a separate data set.

Take “FliF (flagellar MS-ring protein) from Salmonella enterica serovar Typhimurium (from UniProt P15928 1-560) (natural protein)”: the stoichiometry N in assay [1] was 33; in assay [2], 34.
